# Test results as given in US20250289849A1, “PEPTIDE TO TREAT ALPHA-SYNUCLEIN AMYLOID BASED DISORDERS” (COUNCIL OF SCIENTIFIC & INDUSTRIAL RESEARCH, priority 2022, published 2025).
# Where no end group is shown, it is not given here.
# Molecular target: T1, human wild-type α-synuclein (Homo sapiens, UniProt P37840)
# T1 construct: made in house; host or cells: E. coli Rosetta(DE3), pT7-7 based expression vector
# Test: In vitro fibrillation assay (Thioflavin T fluorescence)
# Assay type: biochemical
# Settings: for inhibition of α-synuclein fibrillation (reduction in ThT fluorescence, in words): FIG. 3, α-synuclein 400 μM, equimolar peptide, 37° C., observed upto 6 hr; for increase in α-synuclein fibrillation (fluorescence intensity), compared to penetratin: FIG. 4A, zoomed Y-axis of FIG. 3 data; for normalized ratio of ThT fluorescence amplitude at 5 h versus 0 h, compared with SEQ.ID.-4: FIG. 4B
# Description: FIG. 1. […] The α-synuclein fibrillation was monitored using ThioflavinT (ThT), a dye that specifically binds to amyloids. The binding of ThT results in increase of its fluorescence intensity at 482 nm. Purified α-synuclein (400 μM) was incubated at 37° C. with shaking in the presence and absence of equimolar concentration of indicated peptides. Amyloid formation was determined by monitoring ThT fluorescence at different time intervals.
# FIG. 3. […] The α-synuclein fibrillation was monitored using ThioflavinT (ThT) dye, which specifically binds to amyloids, with its subsequent increase in fluorescence intensity recorded at 482 nm. The purified α-synuclein (400 μM) was incubated at 37° C. with shaking, in the presence and absence of equimolar concentration of indicated peptides. Amyloid formation was determined by monitoring ThT fluorescence at different time intervals.
# FIG. 4A. The inhibition of α-synuclein fibrillation in the presence of different peptides as indicated by SEQ.IDs. The data is same as in FIG. 3A except that only the enhanced (zoomed) Y-axis for α-synuclein fibrillation in the presence of peptides is shown for clarity.
# FIG. 4B. The ratio of the amplitude at 5 h versus 0 h for each of the curve was calculated and normalized.
# Thioflavin T (ThT) (4 mM) was added to 400 μM of purified α-synuclein with and without Cell penetrating peptides at equimolar concentration in a 96 microwell plate. The plate was incubated at 37° C. with a shaking speed of 900 rpm in linear mode in a multimode plate reader (TECAN infinite M200 PRO). Fluorescence kinetics was measured after every 15 minutes with emission wavelength of 482 nm upon excitation at 442 nm. Each experiment was repeated at least three times.
Substance,"inhibition of α-synuclein fibrillation (reduction in ThT fluorescence, in words)","increase in α-synuclein fibrillation (fluorescence intensity), compared to penetratin","normalized ratio of ThT fluorescence amplitude at 5 h versus 0 h, compared with SEQ.ID.-4"
SEQ.ID.-6: Cyclic derivative synthesized by introducing Cys residue at N-terminal and C-terminal of SEQ.ID.-4 sequence (CRQIKIWFQNRRMKWKKC; not fully specified (bridges); cysteine pairing not given here),inhibits α-synuclein fibrillation,–,–
"SEQ.ID.-7: shorter truncated version of SEQ.ID.-4, further cyclized (CKIWFQNRRMKC; not fully specified (bridges); also: cyclized, mode not given here)",inhibits α-synuclein fibrillation,did not allow increase in α-synuclein fibrillation,significantly better inhibitor of fibrillation than of SEQ.ID.-4
"SEQ.ID.-8: shorter and cyclized derivative of SEQ.ID.-4 with an additional mutation (CKIWFANRRMKC; not fully specified (bridges); also: cyclized, mode not given here)",inhibits α-synuclein fibrillation,did not allow increase in α-synuclein fibrillation,significantly better inhibitor of fibrillation than of SEQ.ID.-4
